Article PMC4742745 (The Journal of Biological Chemistry, 2015)

Assays:
[1] = biological target: T1, recombinant human wild type LCAT protein (lecithin-cholesterol acyltransferase) (human, UniProt P04180 25-440); assay: SPR; Biacore 3000, 25 °C, HBS-EP (10 mM HEPES pH 7.4, 150 mM NaCl, 3.0 mM EDTA, 0.05% surfactant P20); mAb captured (100 RU) on goat anti-human IgG Fc amine-coupled to a CM5 chip; LCAT flowed over (human 100 nM to 412 pM, cynomolgus 111 nM to 457 pM, 3-fold dilutions); 1:1 binding model, KD = kd/ka; conditions: both partners purified
T1 construct: human lecithin-cholesterol acyltransferase (EC 2.3.1.43), full-length coding region cloned from liver and brain cDNAs into pDSRa25; also called rLCAT; human rLCAT
T1 sequence (looked up): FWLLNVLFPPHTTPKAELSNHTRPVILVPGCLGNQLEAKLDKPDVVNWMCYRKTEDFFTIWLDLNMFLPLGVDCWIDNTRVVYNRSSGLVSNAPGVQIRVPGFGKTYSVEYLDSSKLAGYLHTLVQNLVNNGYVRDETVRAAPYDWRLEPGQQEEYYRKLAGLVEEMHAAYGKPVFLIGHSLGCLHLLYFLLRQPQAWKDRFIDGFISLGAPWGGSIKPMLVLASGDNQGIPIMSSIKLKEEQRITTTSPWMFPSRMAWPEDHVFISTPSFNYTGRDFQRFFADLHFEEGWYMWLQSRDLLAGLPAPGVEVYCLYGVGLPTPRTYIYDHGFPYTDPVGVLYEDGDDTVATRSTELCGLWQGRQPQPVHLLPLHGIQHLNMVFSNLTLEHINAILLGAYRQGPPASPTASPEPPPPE

[2] = biological target: T1, recombinant human wild type LCAT …; assay: cell-based or functional assay

Kd [1] [nM] | koff [1] [s⁻¹] | kon [1] [M⁻¹ s⁻¹] | increase of the cholesterol esterification activity of native LCAT by 27C3, apoAI-proteoliposomes as substrate [2] [fold] | Binder
1.01 | 0.000133 | 132000 | – | 18E5, fully human anti-human LCAT agonistic monoclonal antibody (antibody, V domains shown, VH of 18E5; VL of 18E5 (kappa); Human IgG with kappa light chain (the light chain was amplified with a primer to the human kappa constant region); also called 18E5 mAb; source: XenoMouse hybridoma, purified from clonal hybridoma exhaust supernatants) VH: not shown VL: EIVLTQSPGTLSLSPGERATLSCRASQSVSGSYLTWYQQKPGQAPRLLIYGASSRATGIPDRFSGSGSGTDFTLTISRLEPEDFAMYYCQQYGGSPPFTFGPGTKVDIKR
1.32 | – | – | 3 | 27C3, fully human anti-human LCAT agonistic monoclonal antibody (antibody, V domains shown, VH of 27C3; VL of 27C3 (lambda); Human IgG2 with lambda light chain; a possible N-linked glycosylation site in heavy chain CDR1; also called 27C3 mAb; 27C3-huIgG2; source: XenoMouse hybridoma, purified from clonal hybridoma exhaust supernatants) VH: QVQLQESGPGLVKPSQTLSLTCTVSGASISSGGYNWSWIRQHPGKGLEWIGYIYYSGSTYYNPSLKSRVTISVDTSKNQFSLKLSSVTAADTAVYYCARERGYCSSTSCSRVMDVWGQGTTVTVSS VL: SSELTQDPAVSVALGQTVRITCQGDSLRSYYASWYQQKPGQAPVLVIYGKNNRPSGIPDRFSGSSSGNTASLTITGAQAEDEADYYCNSRDNIGNHQVFGGGTKLTVLG
